Reference: patent US20220389120A1 (GENSUN BIOPHARMA, published 2022)

B1: GS01-A (other)
heavy: QVQLVQSGAEVKKPGASVKVSCKASGYTFTSYYIHWVRQAPGQGLEWMGWIFPGSGNSKYNENFKGRVTLTADTSTSTVYMELSSLRSEDTAVYYCASETYDYGDYWGQGTLVTVSSASTKGPSVFPLAPCSRSTSESTAALGCLVKDYFPEPVTVSWNSGALTSGVHTFPAVLQSSGLYSLSSVVTVPSSSLGTKTYTCNVDHKPSNTKVDKRVESKYGPPCPPCPAPEFLGGPSVFLFPPKPKDTLMISRTPEVTCVVVDVSQEDPEVQFNWYVDGVEVHNAKTKPREEQFNSTYRVVSVLTVLHQDWLNGKEYKCKVSNKGLPSSIEKTISKAKGQPREPQVYTLPPSQEEMGGAQTNFMPMDDLEQRLYEQFILQQGGGGSGGGGSGGGGSGGGGSTNFMPMDDLEQRLYEQFILQQGLETKNQVSLTCLVKGFYPSDIAVEWESNGQPENNYKTTPPVLDSDGSFFLYSRLTVDKSRWQEGNVFSCSVMHEALHNHYTQKSLSLSLGKGGGGSGGGGSGGGGSGGGGSEVQLVESGGGLVQPGGSLRLSCAASGFTISDYWIHWVRQAPGKGLEWVAGITPAGGYTYYADSVKGRFTISADTSKNTAYLQMNSLRAEDTAVYYCARFVFFLPYAMDYWGQGTLVTVSSGGGGSGGGGSGGGGSGGGGSDIQMTQSPSSLSASVGDRVTITCRASQDVSTAVAWYQQKPGKAPKLLIYSASFLYSGVPSRFSGSGSGTDFTLTISSLQPEDFATYYCQQGYGNPFTFGQGTKVEIK
light: DIQMTQSPSFLSASVGDRVTITCKASQNVGTNVAWYQQKPGKAPKALIYSASYRYSGVPSRFSGSGSGTEFTLTISSLQPEDFATYYCQQYYSYPYTFGQGTKLEIKRTVAAPSVFIFPPSDEQLKSGTASVVCLLNNFYPREAKVQWKVDNALQSGNSQESVTEQDSKDSTYSLSSTLTLSKADYEKHKVYACEVTHQGLSSPVTKSFNRGEC
notes: Trispecific PD-1/VEGF/Ang2 antagonist on an IgG4 Fc; also called trispecific construct GS01-A
B2: GS01-T (other)
heavy: QVQLVQSGAEVKKPGASVKVSCKASGYTFTSYYIHWVRQAPGQGLEWMGWIFPGSGNSKYNENFKGRVTLTADTSTSTVYMELSSLRSEDTAVYYCASETYDYGDYWGQGTLVTVSSASTKGPSVFPLAPCSRSTSESTAALGCLVKDYFPEPVTVSWNSGALTSGVHTFPAVLQSSGLYSLSSVVTVPSSSLGTKTYTCNVDHKPSNTKVDKRVESKYGPPCPPCPAPEFLGGPSVFLFPPKPKDTLMISRTPEVTCVVVDVSQEDPEVQFNWYVDGVEVHNAKTKPREEQFNSTYRVVSVLTVLHQDWLNGKEYKCKVSNKGLPSSIEKTISKAKGQPREPQVYTLPPSQEEMGGAQQEECEWDPWTCEHMGSGSATGGSGSTASSGSGSATHQEECEWDPWTCEHMGGTKNQVSLTCLVKGFYPSDIAVEWESNGQPENNYKTTPPVLDSDGSFFLYSRLTVDKSRWQEGNVFSCSVMHEALHNHYTQKSLSLSLGKGGGGSGGGGSGGGGSGGGGSEVQLVESGGGLVQPGGSLRLSCAASGFTISDYWIHWVRQAPGKGLEWVAGITPAGGYTYYADSVKGRFTISADTSKNTAYLQMNSLRAEDTAVYYCARFVFFLPYAMDYWGQGTLVTVSSGGGGSGGGGSGGGGSGGGGSDIQMTQSPSSLSASVGDRVTITCRASQDVSTAVAWYQQKPGKAPKLLIYSASFLYSGVPSRFSGSGSGTDFTLTISSLQPEDFATYYCQQGYGNPFTFGQGTKVEIK
light: DIQMTQSPSFLSASVGDRVTITCKASQNVGTNVAWYQQKPGKAPKALIYSASYRYSGVPSRFSGSGSGTEFTLTISSLQPEDFATYYCQQYYSYPYTFGQGTKLEIKRTVAAPSVFIFPPSDEQLKSGTASVVCLLNNFYPREAKVQWKVDNALQSGNSQESVTEQDSKDSTYSLSSTLTLSKADYEKHKVYACEVTHQGLSSPVTKSFNRGEC
notes: Trispecific PD-1/VEGF/Ang1/Ang2 antagonist on an IgG4 Fc; also called trispecific construct GS01-T
B3: Bi-T0Z (Fc fusion)
chain: ESKYGPPCPPCPAPEFLGGPSVFLFPPKPKDTLMISRTPEVTCVVVDVSQEDPEVQFNWYVDGVEVHNAKTKPREEQFNSTYRVVSVLTVLHQDWLNGKEYKCKVSNKGLPSSIEKTISKAKGQPREPQVYTLPPSQEEMGGAQQEECEWDPWTCEHMGSGSATGGSGSTASSGSGSATHQEECEWDPWTCEHMGGTKNQVSLTCLVKGFYPSDIAVEWESNGQPENNYKTTPPVLDSDGSFFLYSRLTVDKSRWQEGNVFSCSVMHEALHNHYTQKSLSLSLGKGGGGSGGGGSGGGGSSDTGRPFVEMYSEIPEIIHMTEGRELVIPCRVTSPNITVTLKKFPLDTLIPDGKRIIWDSRKGFIISNATYKEIGLLTCEATVNGHLYKTNYLTHRQTNTIIDVVLSPSHGIELSVGEKLVLNCTARTELNVGIDFNWEYPSSKHQHKKLVNRDLKTQSGSEMKKFLSTLTIDGVTRSDQGLYTCAASSGLMTKKNSTFVRVHEK

Target: T1, recombinant human Ang2 (Biolegend) (human, UniProt O15123 19-496, limits assumed)
T1 construct: Bought reagent; also called angiopoietin-2
T1 sequence (looked up): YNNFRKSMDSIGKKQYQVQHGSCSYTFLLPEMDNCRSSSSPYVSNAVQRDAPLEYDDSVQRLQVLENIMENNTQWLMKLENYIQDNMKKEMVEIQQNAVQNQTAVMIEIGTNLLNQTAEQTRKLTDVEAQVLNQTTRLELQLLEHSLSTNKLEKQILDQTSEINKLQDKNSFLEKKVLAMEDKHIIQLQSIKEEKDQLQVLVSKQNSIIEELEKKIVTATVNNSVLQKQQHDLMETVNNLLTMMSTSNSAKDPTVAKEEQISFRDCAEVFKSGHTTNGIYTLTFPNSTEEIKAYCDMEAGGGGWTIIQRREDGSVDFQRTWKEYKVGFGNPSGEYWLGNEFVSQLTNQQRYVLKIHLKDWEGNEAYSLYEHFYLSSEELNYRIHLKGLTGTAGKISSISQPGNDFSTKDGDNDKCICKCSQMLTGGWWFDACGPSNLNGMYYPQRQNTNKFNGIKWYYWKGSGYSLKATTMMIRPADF
Test: Tie2-Ang2 blocking ELISA
Method: 96-well assay plates were coated with 0.5 ug/ml of recombinant human Ang2 (Biolegend) in PBS at 4° C. overnight, then blocked with 1% BSA/PBS for 1 hour at room temperature. […] After washing with Wash Buffer, Streptavidin-HRP was added to the plate at 1:200 and incubated for 30 minutes at room temperature.

Binder | binding result
B1 | binds
B2 | binds
B3 | binds
